Values quoted from earlier work, collected in publication PMC3238542.
Where two headings read alike, the source gives them in different places.

Tests used:
[1] = molecular target: pyruvate carboxylase (UniProt P11498)
[2] = molecular target: pyruvate carboxylase (UniProt P11498); test: enzyme inhibition

UniProt P11498, sequence (P11498 21-1178): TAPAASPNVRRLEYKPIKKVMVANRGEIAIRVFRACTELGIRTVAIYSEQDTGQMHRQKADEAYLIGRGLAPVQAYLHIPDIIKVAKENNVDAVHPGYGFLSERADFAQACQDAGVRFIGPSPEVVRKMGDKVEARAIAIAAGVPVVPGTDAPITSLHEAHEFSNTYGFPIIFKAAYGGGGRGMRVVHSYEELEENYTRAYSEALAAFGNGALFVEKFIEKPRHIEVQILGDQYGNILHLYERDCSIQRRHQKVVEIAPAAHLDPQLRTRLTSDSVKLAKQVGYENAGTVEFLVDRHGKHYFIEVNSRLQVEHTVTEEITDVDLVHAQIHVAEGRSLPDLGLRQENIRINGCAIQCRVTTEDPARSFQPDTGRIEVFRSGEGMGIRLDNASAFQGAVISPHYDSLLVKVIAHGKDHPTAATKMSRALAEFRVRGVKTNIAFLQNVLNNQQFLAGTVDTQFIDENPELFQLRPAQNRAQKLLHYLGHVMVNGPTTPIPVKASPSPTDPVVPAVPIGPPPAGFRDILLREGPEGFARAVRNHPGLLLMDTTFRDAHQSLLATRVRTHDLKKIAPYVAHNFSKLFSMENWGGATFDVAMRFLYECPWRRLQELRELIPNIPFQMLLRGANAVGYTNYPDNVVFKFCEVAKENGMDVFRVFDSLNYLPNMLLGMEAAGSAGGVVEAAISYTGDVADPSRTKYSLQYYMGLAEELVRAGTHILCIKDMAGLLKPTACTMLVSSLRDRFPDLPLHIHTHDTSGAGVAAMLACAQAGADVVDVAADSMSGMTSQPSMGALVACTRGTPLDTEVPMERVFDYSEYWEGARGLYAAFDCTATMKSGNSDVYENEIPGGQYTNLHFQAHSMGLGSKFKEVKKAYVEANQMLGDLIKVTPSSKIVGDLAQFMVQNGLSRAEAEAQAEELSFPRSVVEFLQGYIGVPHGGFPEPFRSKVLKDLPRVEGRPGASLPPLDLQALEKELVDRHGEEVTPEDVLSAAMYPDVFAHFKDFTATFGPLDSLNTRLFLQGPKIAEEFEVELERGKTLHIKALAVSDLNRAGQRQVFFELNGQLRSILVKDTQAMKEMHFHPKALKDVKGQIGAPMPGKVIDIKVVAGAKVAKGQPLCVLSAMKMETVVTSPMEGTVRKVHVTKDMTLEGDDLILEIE

prohibitin (Phb1) (from UniProt P35232)
Ki [1]: 4 nM | Ki [2]: 5 nM
